# Laboratory results as given in patent US20090062180A1 (TEL AVIV UNIVERSITY FUTURE TECHNOLOGY DEVELOPMENT L P, published 2009).
# Square brackets hold non-standard residues; d marks the D form. Ends that are not written are not given here. * marks the point of attachment. Myristoyl = CCCCCCCCCCCCCC(=O)*; pS = N[C@@H](COP(=O)(O)O)C(=O)O
# Columns and labels:
# [1] = biological target: T1, Purified recombinant rabbit GSK-3β (glycogen synthase kinase-3β) (rabbit, UniProt A0A5F9DUX8 1-420); experiment: cell-based or functional assay
# [2] = biological target: T1, Purified recombinant rabbit GSK-3β …; experiment: cell-based or functional assay; remark: listed apart in the source
# [3] = biological target: mitogen activated protein kinase (MAPK); experiment: cell-based or functional assay
# [4] = biological target: catalytic subunit of cAMP dependent protein kinase (PKA); experiment: cell-based or functional assay
# casein kinase-2 (CK-2) = experiment: cell-based or functional assay
# [5] = biological target: Cyclic dependent protein kinase, cdc2; experiment: cell-based or functional assay
# Protein kinase C-δ = experiment: cell-based or functional assay
# Protein kinase B (PKB) = experiment: cell-based or functional assay
# [6] = biological target: T1, Purified recombinant rabbit GSK-3β …; experiment: Lineweaver-Burk analysis of the in vitro GSK-3 kinase assay; competitive against PGS-1 peptide substrate
# Method: The results represent phosphate incorporation into PGS-1 peptide substrate (CPM). […] Each point is a mean of duplicate samples.
# In vitro inhibition assays: Purified recombinant rabbit GSK-30 (Eldar-Finkelman et al., 1996) was incubated with peptide substrate PGS-1 ([…](p)EDEEE) (SEQ ID NO:15) and with a peptide inhibitor at indicated concentrations. The reaction mixture included Tris 50 mM (pH=7.3), 10 mM MgAc, ³²P[γ-ATP] (100 μM), 0.01% β-mercaptoethanol, and was incubated for 10 minutes at 30° C. Reactions were spotted on phosphocellulose paper (p81), washed with 100 mM phosphoric acid, and counted for radioactivity (as described in Eldar-Finkelman et al., 1996).
# [7] = biological target: endogenous GSK-3 (in HEK 293 cells); experiment: cell-based or functional assay
binder,measurement,setting,value
PAPPQ[pS]P [Peptide No. 12 PAPPQS(p)P],Inhibitor functionality (IC50),[1],> 800 µM
KEAPPAPPQ[pS]P (also called peptide 9) [Peptide No. 9 KEAPPAPPQS(p)P (L803)],"IC50 (in vitro GSK-3 kinase inhibition, PGS-1 substrate)",[2],150 µM
same,% Maximal activity (kinase activity with 200 µM L803),[3],106%
same,% Maximal activity (kinase activity with 200 µM L803),[4],86%
same,% Maximal activity (kinase activity with 200 µM L803),casein kinase-2 (CK-2),117%
same,% Maximal activity (kinase activity with 200 µM L803),[5],90%
same,% Maximal activity (kinase activity with 200 µM L803),Protein kinase C-δ,111%
same,% Maximal activity (kinase activity with 200 µM L803),Protein kinase B (PKB),91%
same,Ki,[6],70 µM
Myristoyl-GKEAPPAPPQ[pS]P [L803-mts (N-Myristol-GKEAPPAPPQS(p)P)],"IC50 (comparative GSK-3β inhibition assay, PGS-1 substrate; FIG. 4)",[2],40 µM
same,"IC50 (in vitro GSK-3 kinase inhibition, PGS-1 substrate; FIGS. 3a-b)",[2],40 µM
same,glycogen synthase activity in HEK 293 cells,[7],2.5 fold
